# No end group written: not given here. PEG = not defined here; Cy5 = Cy5 dye
# Target: chicken PHT1 (purified, wild type) (chicken)
# Experiment: MST
# Chain of chicken PHT1 (purified, wild type) (chicken) (chain, as listed by the source): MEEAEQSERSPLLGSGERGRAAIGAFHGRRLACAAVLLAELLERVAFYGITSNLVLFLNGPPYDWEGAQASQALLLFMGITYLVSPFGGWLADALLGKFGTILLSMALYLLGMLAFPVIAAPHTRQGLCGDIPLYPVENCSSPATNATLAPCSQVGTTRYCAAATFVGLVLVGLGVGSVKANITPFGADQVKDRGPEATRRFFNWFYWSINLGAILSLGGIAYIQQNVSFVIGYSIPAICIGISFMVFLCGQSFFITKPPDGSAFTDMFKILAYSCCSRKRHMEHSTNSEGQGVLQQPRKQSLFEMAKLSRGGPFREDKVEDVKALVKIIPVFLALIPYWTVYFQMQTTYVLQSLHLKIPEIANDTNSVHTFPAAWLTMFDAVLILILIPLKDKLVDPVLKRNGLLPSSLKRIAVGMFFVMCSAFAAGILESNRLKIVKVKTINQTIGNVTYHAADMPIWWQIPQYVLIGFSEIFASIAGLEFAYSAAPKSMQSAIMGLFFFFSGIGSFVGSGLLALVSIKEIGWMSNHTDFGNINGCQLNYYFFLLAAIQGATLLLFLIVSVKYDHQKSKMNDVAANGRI
row,Kd,Binder
1,361 nM,MLSEGYLYRIAYL-{PEG-Cy5} (reading uncertain) [fluorescently labeled TASL_(1-13) peptide]

# Target: chicken PHT1 (purified, wild type) (chicken)
# Experiment: not given
row,Kd,Binder
1,1760 nM,MLSEGYLYRIAYLCE [TASL peptide with a length of 15 residues]
2,4050 nM,MLSEGYLYRIAYLCEDSELCT [TASL peptide with a length of 21 residues]
3,1350 nM,MLSEGYLYRIAYLCEDS [TASL peptide with a length of 17 residues]

# Target: chicken PHT1 (purified, wild type) (chicken)
# Experiment: not given
# Remark: another data set of the same source
row,Binder,Kd
1,LSEGYLYRIAYL [TASL 2-13],9110 nM
2,MLSEGYLYRIAYLGSGSGS [TASL 1-13-GSGSGS],410 nM
3,MLSEGYLARIAYL [TASL 1-13 Y8A],2120 nM
4,MLSEGYLYAIAYL [TASL 1-13 R9A],3360 nM
5,EGYLYRIAYL [TASL 4-13],10500 nM
6,ALSEGYLYRIAYL [TASL 1-13 M1A],15400 nM
7,MLSEGYLYRIAYLA [TASL 1-14 C14A],400 nM
8,MLAEGYLYRIAYL [TASL 1-13 S3A],690 nM
9,MLSEGYAYRIAYL [TASL 1-13 L7A],310 nM

# The next lines start with the values.
row,Kd,Binder
1,580 nM,MLSEGYLYRIAYLGSGS [TASL 1-13-GSGS]
2,1530 nM,MLSEGALYRIAYL [TASL 1-13 Y6A]
3,1740 nM,MLSEGYLYRIAY [TASL 1-12]
4,7280 nM,MASEGYLYRIAYL [TASL 1-13 L2A]
5,7630 nM,SEGYLYRIAYL [TASL 3-13]
6,710 nM,MLSEGYLYRIAYLGS [TASL 1-13-GS]
